From patent US20190169289A1 (Scripps Research, published 2019)

Key:
[1] = molecular target: T1, anti-GCN4 (52SR4 scFv) sCAR with IgG4m hinge; assay: flow cytometry competition on CAR-T cells with the GCN4 CAR (SEQ ID NO. 74): 1 nM labelled GCN4 peptide (GCN4-AF488) as competitor, unlabelled peptide titrated, MFI of the labelled peptide read
T1 construct: disulfide dimer by western blot; also called short-dimeric sCAR; IgG4m sCAR
T1 chain: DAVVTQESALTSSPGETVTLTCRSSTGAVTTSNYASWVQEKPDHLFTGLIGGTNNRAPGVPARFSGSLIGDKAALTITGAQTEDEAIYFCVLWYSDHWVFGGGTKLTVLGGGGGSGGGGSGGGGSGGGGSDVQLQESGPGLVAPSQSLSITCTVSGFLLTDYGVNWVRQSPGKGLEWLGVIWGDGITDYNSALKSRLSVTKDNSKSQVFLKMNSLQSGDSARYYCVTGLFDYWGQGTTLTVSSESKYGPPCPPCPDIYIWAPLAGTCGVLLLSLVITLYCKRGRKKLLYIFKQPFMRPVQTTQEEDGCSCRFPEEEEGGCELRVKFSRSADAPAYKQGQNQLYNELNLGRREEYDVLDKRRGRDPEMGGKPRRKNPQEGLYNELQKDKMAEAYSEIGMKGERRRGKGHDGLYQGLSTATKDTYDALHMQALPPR
Excerpt: Un-labelled peptide binding efficiency was indirectly shown by measuring the mean fluorescence intensity (MFI) staining with the labelled peptide.
Cells were then washed twice with cold PBS to remove the free labelled peptide before being analyzed using the BD Accuri flow cytometer.

CD22 [2] = molecular target: T2, CD22 (UniProt P20273 20-847, limits assumed); assay: cell-based or functional assay
CD22 [3] = molecular target: T2, CD22; assay: cell-based or functional assay; remark: listed apart in the source

| Binder | binding result [1] | cytotoxicity at 0.01 pM (CD22 [2]) | cytotoxicity at 0.1 pM (CD22 [2]) | cytotoxicity at 1 pM (CD22 [2]) | cytotoxicity at 10 pM (CD22 [2]) | cytotoxicity at 100 pM (CD22 [2]) | cytotoxicity at 1000 pM (CD22 [2]) | cytotoxicity at 10000 pM (CD22 [2]) | EC50 of cytotoxicity (CD22 [3]) [pM] |
| --- | --- | --- | --- | --- | --- | --- | --- | --- | --- |
| AAAAENEVARLKKL [Peptide 5: AAAAENEVARLKKL] | no binding (tested: 10^3 nM) | – | – | – | – | – | – | – | – |
| NYHLENEVARLKAA [Peptide 7: NYHLENEVARLKAA] | binds | – | – | – | – | – | – | – | – |
| NYHLENEVARLKKA [Peptide 6: NYHLENEVARLKKA] | binds | – | – | – | – | – | – | – | – |
| NYHLENEVARLAAA [Peptide 8: NYHLENEVARLAAA] | binds | – | – | – | – | – | – | – | – |
| anti-CD22 (clone hLL2) Fab LCCT switch (Fab) light: DIQLTQSPSSLSASVGDRVTMSCKSSQSVLYSANHKNYLAWYQQKPGKAPKLLIYWASTRESGVPSRFSGSGSGTDFTFTISSLQPEDIATYYCHQYLSSWTFGGGTKLEIKRTVAAPSVFIFPPSDEQLKSGTASVVCLLNNFYPREAKVQWKVDNALQSGNSQESVTEQDSKDSTYSLSSTLTLSKADYEKHKVYACEVTHQGLSSPVTKSFNRGECGGGGSNYHLENEVARLKKL heavy: QVQLVQSGAEVKKPGSSVKVSCKASGYTFTSYWLHWVRQAPGQGLEWIGYINPRNDYTEYNQNFKDKATITADESTNTAYMELSSLRSEDTAFYFCARRDITTFYWGQGTTVTVSSARTKGPSVFPLAPSSKSTSGGTAALGCLVKDYFPEPVTVSWNSGALTSGVHTFPAVLQSSGLYSLSSVVTVPSSSLGTQTYICNVNHKPSNTKVDKKVEPKSC | – | -2.13 | -0.84 | -0.01 | 4.8 | 23.8 | 49.6 | 56.5 | 132 |
| anti-CD22 (clone hLL2) Fab HCCT switch (Fab, V domains shown) VH: QVQLVQSGAEVKKPGSSVKVSCKASGYTFTSYWLHWVRQAPGQGLEWIGYINPRNDYTEYNQNFKDKATITADESTNTAYMELSSLRSEDTAFYFCARRDITTFYWGQGTTVTVSS VL: DIQLTQSPSSLSASVGDRVTMSCKSSQSVLYSANHKNYLAWYQQKPGKAPKLLIYWASTRESGVPSRFSGSGSGTDFTFTISSLQPEDIATYYCHQYLSSWTFGGGTKLEIKR | – | 1.3 | 6.05 | 7.67 | 8.27 | 7.35 | 25 | 45.1 | 1340 |
| anti-CD22 (clone hLL2) Fab LCNT switch (Fab, V domains shown) VH: QVQLVQSGAEVKKPGSSVKVSCKASGYTFTSYWLHWVRQAPGQGLEWIGYINPRNDYTEYNQNFKDKATITADESTNTAYMELSSLRSEDTAFYFCARRDITTFYWGQGTTVTVSS VL: DIQLTQSPSSLSASVGDRVTMSCKSSQSVLYSANHKNYLAWYQQKPGKAPKLLIYWASTRESGVPSRFSGSGSGTDFTFTISSLQPEDIATYYCHQYLSSWTFGGGTKLEIKR | – | – | – | – | – | – | – | – | 6560 |
| anti-CD22 (clone hLL2) Fab NTBV switch (Fab, V domains shown) VH: QVQLVQSGAEVKKPGSSVKVSCKASGYTFTSYWLHWVRQAPGQGLEWIGYINPRNDYTEYNQNFKDKATITADESTNTAYMELSSLRSEDTAFYFCARRDITTFYWGQGTTVTVSS VL: DIQLTQSPSSLSASVGDRVTMSCKSSQSVLYSANHKNYLAWYQQKPGKAPKLLIYWASTRESGVPSRFSGSGSGTDFTFTISSLQPEDIATYYCHQYLSSWTFGGGTKLEIKR | – | 1.52 | 2.19 | 4.2 | 2.07 | – | -2.07 | 1.5 | 135 |
